Measurements: patent US9777044B2, “GLUT-1 as a receptor for HTLV envelopes and its uses” (CENTRE NATIONAL DE LA RECHERCHE SCIENTIFIQUE (CNRS), priority 2003, dated 2017)

Target: T1, GLUT-1 (Homo sapiens, UniProt P11166)
T1 construct: factor Xa cleavage site (C); His (C); expressed in transfected cells
T1 sequence (P11166 1-492): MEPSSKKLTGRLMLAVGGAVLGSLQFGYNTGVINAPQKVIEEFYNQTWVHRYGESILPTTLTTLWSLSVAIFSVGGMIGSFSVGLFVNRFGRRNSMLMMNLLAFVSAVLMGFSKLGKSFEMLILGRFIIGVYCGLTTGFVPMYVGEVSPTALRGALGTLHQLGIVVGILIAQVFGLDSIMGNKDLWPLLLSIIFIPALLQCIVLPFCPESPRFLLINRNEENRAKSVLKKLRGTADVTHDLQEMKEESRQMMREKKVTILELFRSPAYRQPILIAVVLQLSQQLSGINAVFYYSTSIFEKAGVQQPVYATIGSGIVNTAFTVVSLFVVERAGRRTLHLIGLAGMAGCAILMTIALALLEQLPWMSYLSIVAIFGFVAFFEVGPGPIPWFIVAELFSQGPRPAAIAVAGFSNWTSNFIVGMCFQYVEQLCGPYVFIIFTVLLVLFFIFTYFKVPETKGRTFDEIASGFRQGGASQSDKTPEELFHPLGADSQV
Experiment: Immunoprecipitation of GLUT-1-HA with anti-rabbit-Fc beads
Format: binding
Settings: co-expression with GLUT-1 in 293T cells, probed with anti-HA antibody
Description: FIGS. 4a-4c GLUT-1 is a receptor for HTLV envelopes. FIG. 4a, Binding of H1RBD, H2RBD, H2RBD D102A mutant, and ARBD to control 293T cells or 293T cells overexpressing either GLUT-1 or PiT2. FIG. 4b, Binding of H2RBD-EGFP to cells overexpressing GLUT-1-HA or GLUT-3-HA, and corresponding immunoblots using an anti-HA antibody. FIG. 4c, Immunoprecipitation of GLUT-1-HA from 293T cells transfected with either an irrelevant construct, GLUT-1 alone, H1RBD alone, H1RBD Y114A alone, GLUT-1 with H1RBD or GLUT-1 with H1RBD Y114A expression vectors Immunoprecipitation was performed using anti-rabbit-Fc beads and probed with an anti-HA antibody. Total cell extracts were blotted using an anti-rabbit Fc or an anti-HA antibody.
In order to directly test the ability of HTLV envelopes to bind GLUT-1, we derived a tagged GLUT-1 expression vector and overexpressed this protein in HeLa cells. […] GLUT-3 is the closest isoform to GLUT-1, and transports glucose with kinetics similar to that of GLUT-1. Thus, we derived a tagged GLUT-3 expression vector. […] To determine if GLUT-1 transfected cells were directly responsible for the observed increased in H1RBD binding, we derived fluorescent tagged GLUT-1 and GLUT-3 to uniquevocally identity GLUT-overexpressing cells in the course of our FACS analysis. […] To this end, we evaluated the ability of H1RBD to immunoprecipitate GLUT-1. […]

B1: H1RBD: first 215 residues of HTLV-1 SU fused to a C-terminal rabbit IgG Fc tag (rFc) (protein)
chain: DYSPSCCTLTIGVSSYHSKPCNPAQPVCSWTLDLLALSADQALQPPCPNLVSYSSYHATYSLYLFPHWIKKPNRNGGGYYSASYSDPCSLKCPYLGCQSWTCPYTGAVSSPYWKFQQDVNFTQEVSRLNINLHFSKCGFPFSLLVDAPGYDPIWFLNTEPSQLPPTAPPLLPHSNLDHILEPSIPWKSKLLTLVQVDVPRDCGCKPCICTVPEVSSVFIFPPKPKDVLTITLTPKVTCVVVDISKDDPEVQFSWFVDDVEVHTAQTQPREEQFNSTFRSVSELPIMHQDWLNGKEFKCRVNSAAFPAPIEKTISKTKGRPKAPQVYTIPPPKEQMAKDKVSLTCMITDFFPEDITVEWQWNGQPAENYKNTQPIMDTDGSYFVYSKLNVQKSNWEAGNTFTCSVLHEGLHNHHTEKSLSHSPGK
Q: With B1 as the molecule, how does the “detection of GLUT-1 upon immunoprecipitation with anti-rabbit-Fc-beads” value read?
A: readily detected
